Assay [1] concerns the target Visinin-like Protein 1 (VILIP-1), unmyristoylated (human) (UniProt P62760). Put plainly: SEC; Sephadex 200 column, 100 mM NaCl, 20 mM HEPES pH 7.5, 0.5 mL/min; samples with 0.1 mM EDTA or 5 mM CaCl2, non-reduced or reduced with 2.5 mM DTT; monomer and dimer peaks.
Assay [2] shares this target. Put plainly: small-angle X-ray scattering (SAXS); 12 mg/mL (542 uM) VILIP-1, 100 mM NaCl, 5 mM CaCl2, 2.5 mM DTT, 20 mM HEPES pH 7.5, 20 °C; mass from forward scattering, ab initio shape.

With “Visinin-like Protein 1 (VILIP-1), unmyristoylated (from UniProt P62760 1-191) (natural protein)”, the stoichiometry N in assay [1] and in assay [2] was 2 in each case.

The values are drawn from paper PMC3206844.
